Measured values published in patent US20020164690A1.

T1: gp130 on PC12D cells (UniProt P40190)
T1 sequence (looked up): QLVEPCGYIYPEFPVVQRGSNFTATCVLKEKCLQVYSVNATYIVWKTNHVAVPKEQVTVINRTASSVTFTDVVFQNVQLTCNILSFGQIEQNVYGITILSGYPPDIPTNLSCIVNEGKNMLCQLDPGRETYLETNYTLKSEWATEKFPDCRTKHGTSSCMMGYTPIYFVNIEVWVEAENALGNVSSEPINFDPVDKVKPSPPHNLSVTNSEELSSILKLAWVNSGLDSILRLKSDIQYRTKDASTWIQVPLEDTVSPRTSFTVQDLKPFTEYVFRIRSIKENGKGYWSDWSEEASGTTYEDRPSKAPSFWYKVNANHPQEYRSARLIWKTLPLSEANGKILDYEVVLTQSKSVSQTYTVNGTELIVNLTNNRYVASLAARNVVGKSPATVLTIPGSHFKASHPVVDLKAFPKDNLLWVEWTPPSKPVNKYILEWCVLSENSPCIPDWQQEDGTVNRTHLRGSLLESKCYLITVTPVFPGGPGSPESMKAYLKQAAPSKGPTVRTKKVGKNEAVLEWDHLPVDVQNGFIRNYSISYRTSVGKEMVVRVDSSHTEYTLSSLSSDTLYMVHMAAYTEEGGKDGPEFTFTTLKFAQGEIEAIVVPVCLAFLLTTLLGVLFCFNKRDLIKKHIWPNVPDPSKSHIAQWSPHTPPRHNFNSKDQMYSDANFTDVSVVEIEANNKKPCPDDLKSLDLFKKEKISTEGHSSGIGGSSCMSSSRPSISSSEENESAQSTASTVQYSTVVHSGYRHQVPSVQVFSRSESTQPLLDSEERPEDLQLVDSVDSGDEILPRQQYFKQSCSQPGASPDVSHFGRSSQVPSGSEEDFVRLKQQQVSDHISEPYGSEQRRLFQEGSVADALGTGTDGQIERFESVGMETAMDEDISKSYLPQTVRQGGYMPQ

B1: anti-IL-6 monoclonal neutralizing antibody B-E8 (antibody, from another filing, V domains shown)
VH: QVTLKESGPGILKPSQTLSLTCSFSGFSLSTSGMGVGWIRQPSGKGLEWLAHIWWDDDKYYNPSLKSQLTISKDTSRNQVFLKITSVDTADTATYYCARSYDDYLYYALDYWGQGTSVTVSS
VL: DIVMTQSPATLSVTPGDRVSLSCRASQSISDYLHWYQQKSHESPRLLIKSVSQSISGIPSRFSGSGSGSDFTLSINSVEPEDVGVYYCQNGHSFPLTFGAGTKLELK
B2: Rat CNTF (ligand, UniProt P20294 1-200, looked up)
chain: MAFAEQTPLTLHRRDLCSRSIWLARKIRSDLTALMESYVKHQGLNKNINLDSVDGVPVASTDRWSEMTEAERLQENLQAYRTFQGMLTKLLEDQRVHFTPTEGDFHQAIHTLMLQVSAFAYQLEELMVLLEQKIPENEADGMPATVGDGGLFEKKLWGLKVLQELSQWTVRSIHDLRVISSHQMGISALESHYGAKDKQM

Key:
[1] = biological target: recombinant human IL-6 (human) (UniProt P05231); assay: cell-based or functional assay
[2] = biological target: human 125I-IL6 (human) (UniProt P05231); assay: dissociation: 20 pM 125I-IL-6 preincubated with 500 pM antibody for 20 hours, chased with 20 nM cold IL-6, precipitation with Protein G-Sepharose
[3] = biological target: T1, gp130 on PC12D cells; assay: cell-based or functional assay

human 125I-IL6 (human), sequence (P05231 30-212 limits assumed): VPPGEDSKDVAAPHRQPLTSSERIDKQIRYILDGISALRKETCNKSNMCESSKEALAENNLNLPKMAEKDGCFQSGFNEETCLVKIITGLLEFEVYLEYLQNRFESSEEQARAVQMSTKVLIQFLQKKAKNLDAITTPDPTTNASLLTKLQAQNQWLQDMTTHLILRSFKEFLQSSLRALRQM
recombinant human IL-6 (human), sequence (P05231 30-212 limits assumed): as above

Binder	IL-6-dependent proliferation of XG-1 cells (50 pg/ml IL-6): molar excess that blocks completely (fold molar excess over IL-6) [1]	percent of the counts still associated after three days [2] [%]	tyrosine phosphorylation of gp130 in PC12D cells in response to IL-6 [3] [nM]	tyrosine phosphorylation of gp130 in PC12D cells in response to IL-6 and sIL-6Rα [3] [nM]
B1	10	< 5		
B2			2	8
